Test: yeast display, Sf9 membrane polyspecificity reagent, FACS + sequencing; frameworks hold sequencing errors
Procedure, shortened: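 Nanobodies from a synthetic yeast display library (Saccharomyces cerevisiae BJ5465), induced 36–48 hours with galactose, were stained 1 hour at 4 °C with 10% biotinylated, detergent-solubilized Sf9 membrane reagent, enriched on streptavidin microbeads, then FACS-sorted. Anti-HA (expression) and streptavidin (reagent binding) fluorescence set low and high (top ~1%) gates. Polyreactivity labels come from the gate of origin. Genes were colony-PCR amplified, MiSeq 2 × 250 sequenced and filtered by CDR length.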

Sequence | polyreactivity (PSR sort gate)
QVQLVESGGGLVQAGGSLRLSCAASGRTFWRYAMGWYRQAPGKERELVAGITSRGGSTYYADSVKGRFTISRDNAKNTVYLQMNSLKPEDTAVYYCNRRSQVHSHSKHDYWGQGTQVTVSS | low polyreactivity
QVQLVESGGGLVQAGGSLRLSCAASGRTFWRYAMGWYRQAPGKERELVATISSGGSTNYADSVKGRFTISRDNAKNTVYLQMNSLKPEDTAVYYCNAEYSYYDLLAYDYWGQGTQVTVSS | low polyreactivity
QVQLVESGGGLVQAGGSLRLSCAASGRTFWSNAMGWSRQAPGKERELVAAITWSGGSTSYADSVKGRFTISRDNAKNTVYLQMNSLKTEDTAVYYCAAGKGVELAKLDYWGQGTQVTVSS | low polyreactivity
QVQLVESGGGLVQAGGSLRLSCAASGRTFWSYAMGWYRQAPGKERELVATITGRGGSTYYADSVKGRFTISRDNAKNTVYLQMNSLKPEDTAVYYCARSQYSRSPSRMGYWGQGTQVTVSS | high polyreactivity
QVQLVESGGGLVQAGGSLRLSCAASGRTFWTNAMGWYRQAPGKERELVAAITKSGGRTYYADSVKGRFTISRDNAKNTVYLQMNRLKPEDTAVYYCAAYSQGEGGYWGQGTQVTVSS | high polyreactivity
QVQLVESGGGLVQAGGSLRLSCAASGRTFWTNAMGWYRQAPGKERELVASINWSGGGTYYADSVKGRFTISRDNAKNTVYLQMNSLKPEDTAVYYCNVYSNPEKEYEYWGQGTQVTVSS | low polyreactivity
QVQLVESGGGLVQAGGSLRLSCAASGRTFWVNAMGWYRQAPGKERELVAAITSSVSSTYYADSVKGRFTISRDNAKNTVYLQMNSLKPEDTAVYYCAAGVGRGMYYWGQGTQVTVSS | low polyreactivity
QVQLVESGGGLVQAGGSLRLSCAASGRTFWVYAMGWYRQAPGKERELVAAINNGGSTTYADSVKGRFTISRDNAKNTVYLQMNSLKPEDTAVYYCAADSVKQVRYGNVGHDYWGQGTQVTVSS | low polyreactivity
QVQLVESGGGLVQAGGSLRLSCAASGRTFWVYAMGWYRQAPGKERELVAAIRRGGITNYADSVKGRFTISRDNAKNTVYLQMNSLKPEDTAVYYCATDNYGYLTRYYYWGQGTQVTVSS | low polyreactivity
QVQLVESGGGLVQAGGSLRLSCAASGRTFWVYAMGWYRQAPGKERELVAAISLSGVSTYYADSVKGRFTISRDNAKNTVYLQMNSLKPDDTAVYYCAAPLIYTPLKYHYWGQGTQVTVSS | low polyreactivity
QVQLVESGGGLVQAGGSLRLSCAASGRTFWVYAMGWYRQAPGKERELVAGISSGASTYYADSVKGRFTISRDNAKNTVYLQMNSLKPEDTAVYYCAAPYYRLTGWSRYDYWGQGTQVTVSS | high polyreactivity
QVQLVESGGGLVQAGGSLRLSCAASGRTFWWYAMGWYRQAPGKEREFVAAISQRGTSTYYADSVKGRFTISRDNAKNTVYLQMNSLKPEDTAVYYCAAPLYRRWEVTYDYWGQGTQVTVSS | high polyreactivity
QVQLVESGGGLVQAGGSLRLSCAASGRTFWYNAMGWYRQAPGKEREFVAAITSSGGSTYYADSVKGRFTISRDNAKHTVFLQMNSLKPEDTAVYYCNKRPGPYKWPPRHDYWGQGTQVTVSS | low polyreactivity
QVQLVESGGGLVQAGGSLRLSCAASGRTFWYNAMGWYRQAPGKERELVAAISSTGGRTYYADSVKGRFTISRDNAKNTVYLQMNSLKPEDTAVYYCAKYPSKSYVPGDYWGQGTQVTVSS | low polyreactivity
QVQLVESGGGLVQAGGSLRLSCAASGRTFWYYAMGWYRHAPGKERELVAAITSGGSTNYADSVKGRFTISRDNAKNTVSLQMNSLKPEDTAVYYCAKLFRQRRYWDWYDYWGQGTQVTVSS | high polyreactivity
QVQLVESGGGLVQAGGSLRLSCAASGRTFWYYAMGWYRQAPGKAREWVATISYRGGSTYYADSVKGRFTISRDNAKNTVNLQMNSLKPEDTAVYYCAAKQWWGGRPKVDYWGQGTQVTVSS | high polyreactivity
QVQLVESGGGLVQAGGSLRLSCAASGRTFWYYDKGWYRQAPGKERELVAAITNGDRTYYADSVKGRFTISRDNAKNTVYLQMNSLKPEDTAVYYCAKETWGTRHDYWGQGTQVTVSS | high polyreactivity
QVQLVESGGGLVQAGGSLRLSCAASGRTFWYYGMGWYRQAPGKERELVAAISRSGGRTSYADSVKGRFTISRDNAKNTVYLQMNSLKPEDTAVYYCATDGYYRYGYWGQGTQVTVSS | high polyreactivity
QVQLVESGGGLVQAGGSLRLSCAASGRTFWYYTMGWYRQAPGKERELVAAISSGGRTNYADSVKGRFTISRDNAKNTVYLQMNSLKPEYTAVYYCATSRYYKYVERDYWGQGTQVTVSS | high polyreactivity
QVQLVESGGGLVQAGGSLRLSCAASGRTFWYYTMGWYRQAPGKERELVAGITGTGGSTYYADSVKGRFTISRDNAKNTVYLQMNSLKPEDTAVYYCNALRRSQRYWDPYGYDYWGQGTQVTVSS | high polyreactivity
QVQLVESGGGLVQAGGSLRLSCAASGRTFYANAMGWYRQAPGKERELVASITTSGGTYYADSVKGRFTISRDNAKNTVYLQMNSLKPEDTAVYYCAAEVYRSIGYDYWGQGTQVTVSS | low polyreactivity
QVQLVESGGGLVQAGGSLRLSCAASGRTFYANTMGWYRQAPGKERELVAAITVRGGTTFYADSVKGRFTISRDNAKNTVYLQMNSLKPEDTAVYYCAAYGYRYSHEYYYWGQGTQVTVSS | high polyreactivity

Sequence | polyreactivity (PSR sort gate)
QVQLVESGGGLVQAGGSLRLSCAASGRTFYAYAMGWYRQAPGKERELVAAITSGASTYYADSVKGRFTISRDNAKNTVYLQMFSLKPEDTAVYYCNAEYYEGYIGVPGSFWPYEYWGQGTQVTVSS | low polyreactivity
QVQLVESGGGLVQAGGSLRLSCAASGRTFYAYDMGWYRQAPGKERELVAAINSGDRTNYADSVKGRFTISRDNAKNTDYLQMNSLKPEDTAVYYCAADWYTPQGVGLDYWGQGTQVTVSS | low polyreactivity
QVQLVESGGGLVQAGGSLRLSCAASGRTFYAYTMGWYRTAPGKERELVAAITRRGGSTYYADSVKGRFTISRDNAKNTVYLQMNSLKPEDTAVYYCAASYSHRNYGLTYDYWGQGTQVTVSS | high polyreactivity
QVQLVESGGGLVQAGGSLRLSCAASGRTFYDNAMGWYRQAPGKERELVAVISRSGSTYYADSVKGRFTISRDNAKNTVYLQMNSLKPEDTAVYYCARRGVWGVTYSRLYHWGQGTLVTVSS | high polyreactivity
QVQLVESGGGLVQAGGSLRLSCAASGRTFYDYTMGRYRQAPGKERELVAAISQRGGSTYYADSVKGRFTISRDNAKNTVYLQMNSLKPEDTAVYYCAARTSYSGNKYYYWGQGTQVTVSS | high polyreactivity
QVQLVESGGGLVQAGGSLRLSCAASGRTFYDYTMGWYRQAPGKERELVAVISKRGGSTYYADSVKGRFTISRDNAKNTVYLQMNSLKPEDTAVYYCAAKSGRNVYQKVDYWGQGTQVTVSS | high polyreactivity
QVQLVESGGGLVQAGGSLRLSCAASGRTFYFNAMGWYRQAPGKERELVAAITFSGGSTNYADSVKGRFTISRDNAKNTVYLQMNSLKPEDTAVYYCAAPKYLGTDEYDYWGQGTQVTVSS | low polyreactivity
QVQLVESGGGLVQAGGSLRLSCAASGRTFYFYAMGWYRQAPGKERELVAAIDFSGDSTYYADSVKGRFTISRDNAKNTVYLQMNSLKPEDTAVYYCAAEIYIGEQPYDYWGQGTQVTVSS | low polyreactivity
QVQLVESGGGLVQAGGSLRLSCAASGRTFYFYAMGWYRQAPGKERELVADIRGITGSTYYADSVKGRFTISRDNAKNTVYLQMNSLKPEDTAVYYCAADQYLGRAWRGRGYYWGQGTQVTVSS | high polyreactivity
QVQLVESGGGLVQAGGSLRLSCAASGRTFYFYTMGWYRQAPGIERELVATIRWSAGSTYSADSVKGRFTISRDNAKNTVYLQMTSLKPEDTAVYYCNADPYVYSSWQYGYWGQGTQVTVSS | high polyreactivity
QVQLVESGGGLVQAGGSLRLSCAASGRTFYFYTMGWYRQAPGKERELVAAITSGGSTNYADSVKGRFTISRDNAKNTVYLQMNSLKPEDTAVYYCAAIYYRVYGYGLRMYYWGQGTQVTVSS | high polyreactivity
QVQLVESGGGLVQAGGSLRLSCAASGRTFYFYVMGWYRQAPGKERELVARISYSDGSTYYADSVKGRFTISRDNAKNTVYLQMNSLKPEDTAVYYCNAYDPYYGRRYDYWGQGTQVTVSS | low polyreactivity
QVQLVESGGGLVQAGGSLRLSCAASGRTFYGNAIAWYRQAPGKERELVAAINRGGNTNYADSVKGRFTISRDNAKNTVYLQMNSLKPEDTAVYYCAARPYYRYFEYWGQGTQVTVSS | high polyreactivity
QVQLVESGGGLVQAGGSLRLSCAASGRTFYGNAMGWYRQAPGKERELVASITRRGGITYYADSVKGRFTISRDNAKNTVYLQMNSLKPEDTAVYYCAKAQLGPWSFEYWGQGTQVTVSS | high polyreactivity
QVQLVESGGGLVQAGGSLRLSCAASGRTFYGNAMGWYRQAPGNERELVAAITTGGGNTYYADSVKGRFTISRDNAKNTVYLQMNSLKPDDTAVYYCAAYERKFYTVSRWYKLDYWGQGTQVTVSS | high polyreactivity
QVQLVESGGGLVQAGGSLRLSCAASGRTFYGYAKGWYIQAPGKERELVAAITRAGSTNYADSVKGRFTISRDNAKNTFYLQLNSLKPEDTAVYYCAAVRVHTDRYNYWGQGTQVTVSS | high polyreactivity
QVQLVESGGGLVQAGGSLRLSCAASGRTFYGYAMAWYRQAPGKERELVAAISVSGGSPYYADSVKGRFTISRDNAKNTVYLQMNSQKPEDTAVYYCIAKYSYRRWYDFDYWGQGTQVTVSS | low polyreactivity
QVQLVESGGGLVQAGGSLRLSCAASGRTFYGYAMGWYRQAPGKERELVAAISFSGGRTYYADSVKGRFTISRDNAKNTVYLQMNSLKPEDTAVYYCNRGLYPFDWVQGTQVTVSS | high polyreactivity
QVQLVESGGGLVQAGGSLRLSCAASGRTFYGYAMGWYRQAPGKERELVAAISKRGGSTYYADSVKGRFTISRDNAKNTVYLQMNSLKPEDTAVYYCARPYLGPYSGYDYNYWGQGTQVTVSS | high polyreactivity
QVQLVESGGGLVQAGGSLRLSCAASGRTFYGYAMGWYRQAPGKERELVAAISKTGGSTYYADSVKGRFTISRDNAKNTVYLQMNSLKPEDTAVYYCNARRIYRLEYDSWGQGTQVTVSS | high polyreactivity
QVQLVESGGGLVQAGGSLRLSCAASGRTFYGYAMGWYRQAPGKERELVAAITRSGGSTYYADSVKGRFTISRDNAKNTVYLQMNSLKPEDTAVYYCAAGGQARHDYWGQGTQVTVSS | low polyreactivity
